Measurements taken from publication PMC4145799, “Assembly principles of a unique cage formed by hexameric and decameric E. coli proteins” (eLife, 2014).

B1: inducible lysine decarboxylase LdcI (enzyme, Escherichia coli)
chain: MNVIAILNHMGVYFKEEPIRELHRALERLNFQIVYPNDRDDLLKLIENNARLCGVIFDWDKYNLELCEEISKMNENLPLYAFANTYSTLDVSLNDLRLQISFFEYALGAAEDIANKIKQTTDEYINTILPPLTKALFKYVREGKYTFCTPGHMGGTAFQKSPVGSLFYDFFGPNTMKSDISISVSELGSLLDHSGPHKEAEQYIARVFNADRSYMVTNGTSTANKIVGMYSAPAGSTILIDRNCHKSLTHLMMMSDVTPIYFRPTRNAYGILGGIPQSEFQHATIAKRVKETPNATWPVHAVITNSTYDGLLYNTDFIKKTLDVKSIHFDSAWVPYTNFSPIYEGKCGMSGGRVEGKVIYETQSTHKLLAAFSQASMIHVKGDVNEETFNEAYMMHTTTSPHYGIVASTETAAAMMKGNAGKRLINGSIERAIKFRKEIKRLRTESDGWFFDVWQPDHIDTTECWPLRSDSTWHGFKNIDNEHMYLDPIKVTLLTPGMEKDGTMSDFGIPASIVAKYLDEHGIVVEKTGPYNLLFLFSIGIDKTKALSLLRALTDFKRAFDLNLRVKNMLPSLYREDPEFYENMRIQELAQNIHKLIVHHNLPDLMYRAFEVLPTMVMTPYAAFQKELHGMTEEVYLDEMVGRINANMILPYPPGVPLVMPGEMITEESRPVLEFLQMLCEIGAHYPGFETDIHGAYRQADGRYTVKVLKEESKK
notes: Inducible lysine decarboxylase LdcI of Escherichia coli; decamer of two pentameric rings; crystal structure pdb 3N75; also called acid stress-inducible lysine decarboxylase; source: E. coli CF1693 bearing pT7-322-Tetr, from pET22b, purified (Ni-NTA, MonoQ, Superdex S200); not shown: 24 amino acid linker containing 6xHis-tag, C-terminal, kept; copies: 10
B2: AAA+ ATPase RavA (enzyme)
chain: not shown
notes: RavA of Escherichia coli, MoxR family AAA+ ATPase; crystal structure pdb 3NBX; The purification is told for the RavA mutants ('as previously described', El Bakkouri et al., 2010); also called MoxR AAA+ ATPase RavA; source: E. coli BL21-(DE3) Gold pLysS, from p11 plasmid, purified (Ni-NTA, TEV, MonoS, Superdex S200); not shown: 6xHis-tag, N-terminal, cleaved

Legend:
[1] = molecular target: the molecule itself; test: cryo-EM structure; LdcI-LARA complex, 7.5 Å; 7.3 µM LdcI with 73 µM LARA (1:10), 15 min at room temperature, 50 mM Mes pH 6.5, 100 mM NaCl, 0.2 mM PLP, 1 mM DTT, 0.01% glutaraldehyde; D5 symmetry imposed
[2] = molecular target: the molecule itself; test: cryo-EM structure; LdcI–RavA complex, 11 Å; 1.26 mg/ml LdcI mixed with 0.94 mg/ml RavA, 15 min at room temperature, 25 mM Mes pH 6.5, 200 mM NaCl, 3 mM ADP, 0.8 mM PLP, 1 mM DTT; no cross-linking; D5 symmetry imposed
[3] = molecular target: B1; test: as above; conditions: both partners purified

Row | Binder | stoichiometry N [1] | stoichiometry N [2] | stoichiometry N [3]
1 | B1 | 10 | – | –
2 | B2 | – | 6 | 1.5 RavA monomers per LdcI monomer
